Measured values published in patent publication EP4580670A2.

Biological target: CH848 day 949 SOSIP Env trimer (soluble SOSIP trimer derived from a virus isolated from the CH848 individual at day 949 post infection) (HIV-1)
Assay: method not stated; affinities shown in Figure 1B; reference DH270 UCA

Question: DH270.I5 Fab was tested. Which fold improvement of Env binding affinity relative to the UCA did it give?
Answer: 8 fold
